Measured values published in EP3628678A1 (Ecole Polytechnique Federale De Lausanne (EPFL) EPFL-TTO, dated 2020).

Target: RSVF on RSV A2 strain carrying a luciferase gene (RSV-Luc) (RSV A2 strain, UniProt P03420 26-574)
Experiment: cell-based or functional assay

Sequence of RSVF on RSV A2 strain carrying a luciferase gene (RSV-Luc) (P03420 26-574): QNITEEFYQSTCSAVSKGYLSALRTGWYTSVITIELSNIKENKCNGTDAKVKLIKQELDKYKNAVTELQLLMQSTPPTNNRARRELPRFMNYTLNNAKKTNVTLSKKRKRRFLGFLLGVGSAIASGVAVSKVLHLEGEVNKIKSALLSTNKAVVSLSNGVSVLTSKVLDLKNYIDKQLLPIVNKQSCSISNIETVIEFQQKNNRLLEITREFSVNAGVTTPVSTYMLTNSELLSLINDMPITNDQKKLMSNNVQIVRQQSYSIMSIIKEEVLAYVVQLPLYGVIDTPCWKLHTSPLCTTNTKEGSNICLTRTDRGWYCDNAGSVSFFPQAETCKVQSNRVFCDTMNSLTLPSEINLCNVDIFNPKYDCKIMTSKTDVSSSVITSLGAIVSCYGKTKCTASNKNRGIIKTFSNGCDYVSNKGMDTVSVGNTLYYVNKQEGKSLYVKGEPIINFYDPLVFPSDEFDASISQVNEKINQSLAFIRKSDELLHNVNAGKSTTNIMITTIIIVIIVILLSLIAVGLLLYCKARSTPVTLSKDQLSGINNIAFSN

B1: Palivizumab (antibody, V domains shown)
VH: QVTLRESGPALVKPTQTLTLTCTFSGFSLSTSGMSVGWIRQPPGKALEWLADIWWDDKKDYNPSLKSRLTISKDTSKNQVVLKVTNMDPADTATYYCARSMITNWYFDVWGAGTTVTVSS
VL: DIQMTQSPSTLSASVGDRVTITCKCQLSVGYMHWYQQKPGKAPKLLIYDTSKLASGVPSRFSGSGSGTEFTLTISSLQPDDFATYYCFQGSGYPFTFGGGTKLEIK
RSV neutralization IC50 (luciferase signal of RSV-Luc on HepG2 cells): 0.32 µg/mL
